Article doi:10.1101/2020.01.05.895227

T1: MBP-Dnmt5(345-747) (Cryptococcus neoformans, UniProt J9VI03 345-747)
T1 sequence: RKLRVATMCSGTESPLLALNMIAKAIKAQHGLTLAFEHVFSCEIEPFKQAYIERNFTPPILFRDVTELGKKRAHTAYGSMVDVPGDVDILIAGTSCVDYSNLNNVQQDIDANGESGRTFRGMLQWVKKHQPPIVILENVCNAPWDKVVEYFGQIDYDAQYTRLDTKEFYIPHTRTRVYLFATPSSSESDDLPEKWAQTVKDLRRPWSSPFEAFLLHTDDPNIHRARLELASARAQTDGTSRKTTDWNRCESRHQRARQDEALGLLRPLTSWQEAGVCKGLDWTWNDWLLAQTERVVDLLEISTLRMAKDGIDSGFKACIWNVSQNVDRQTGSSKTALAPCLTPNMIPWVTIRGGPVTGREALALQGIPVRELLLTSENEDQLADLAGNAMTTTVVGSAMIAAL

T2: MBP-Dnmt5(1-150, W87A, Y90A) (Cryptococcus neoformans, UniProt J9VI03 1-150, W87A;Y90A)
T2 sequence: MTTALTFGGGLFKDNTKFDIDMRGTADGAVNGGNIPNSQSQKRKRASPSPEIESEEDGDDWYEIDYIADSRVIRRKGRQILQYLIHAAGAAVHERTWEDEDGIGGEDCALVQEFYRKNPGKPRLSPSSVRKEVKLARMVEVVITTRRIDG


Assays:
Assay in all cases: EMSA
Dnmt5 full-length [1] = target: T3, Dnmt5 full-length (Cryptococcus neoformans, UniProt J9VI03 1-2377)
MBP-Dnmt5(345-747) = target: T1, MBP-Dnmt5(345-747)
[2] = target: T2, MBP-Dnmt5(1-150, W87A, Y90A)
Dnmt5 full-length [3] = target: T3, Dnmt5 full-length; remark: listed apart in the source

Binder | Kd (Dnmt5 full-length [1]) [nM] | Kd (MBP-Dnmt5(345-747)) [nM] | binding result [2] | binding signal (Dnmt5 full-length [3])
Unmethylated 60 bp DNA (3 CG), Cy5 (dsDNA) DNA 1: CATGGCCTAAGCCGGACTGAATGAGCAAGCTTCCGGAGAATTCTGCCGGACTGCAGATGC DNA 2: GCATCTGCAGTCCGGCAGAATTCTCCGGAAGCTTGCTCATTCAGTCCGGCTTAGGCCATG | 20 ± 5 | 7 ± 3 |  | 
Hemimethylated 60 bp DNA (3 CG), Cy5 (dsDNA, 5mC at strand 1 positions 13, 34, 47) DNA 1: CATGGCCTAAGCCGGACTGAATGAGCAAGCTTCCGGAGAATTCTGCCGGACTGCAGATGC DNA 2: GCATCTGCAGTCCGGCAGAATTCTCCGGAAGCTTGCTCATTCAGTCCGGCTTAGGCCATG | < 1 | 6 ± 2 | no binding | 
Unmethylated 60 bp DNA, one CG, Cy5 (dsDNA) DNA 1: CATGGCCTAAGCAGGACTGAATGAGCAAGCTTCCGGAGAATTCTGCAGGACTGCAGATGC DNA 2: GCATCTGCAGTCCTGCAGAATTCTCCGGAAGCTTGCTCATTCAGTCCTGCTTAGGCCATG |  |  |  | 1 reference; abasic DNA binds 5-fold tighter
